From patent US9580508B2, “Bispecific EGFR/c-Met antibodies” (Janssen Biotech, Inc., priority 2012, dated 2017)

B1: P54CR4-31: EGFR-binding FN3 domain, SEQ ID NO: 26 (protein)
chain: LPAPKNLVVSEVTEDSLRLSWTAPDAAFDSFLIQYQESEKVGEAINLTVPGSERSYDLTGLKPGTEYTVSIYGVLGSYVFEHDVMLPLSAEFTT
modifications: EGFR binding FN3 domain
B2: P54CR4-31v2: stabilized EGFR-binding FN3 domain, SEQ ID NO: 28 (protein)
chain: LPAPKNLVVSEVTEDSARLSWTAPDAAFDSFLIQYQESEKVGEAIVLTVPGSERSYDLTGLKPGTEYTVSIYGVLGSYVFEHDVMLPLSAIFTT
modifications: EGFR binding FN3 domain
B3: P54AR4-83: EGFR-binding FN3 domain, SEQ ID NO: 25 (protein)
chain: LPAPKNLVVSEVTEDSLRLSWDDPWAFYESFLIQYQESEKVGEAINLTVPGSERSYDLTGLKPGTEYTVSIYGVHNVYKDTNMRGLPLSAEFTT
modifications: EGFR binding FN3 domain
B4: P54AR4-37: EGFR-binding FN3 domain, listed with SEQ ID NO: 22 in Table 6 (protein)
chain: LPAPKNLVVSEVTEDSLRLSWTWPYADLDSFLIQYQESEKVGEAINLTVPGSERSYDLTGLKPGTEYTVSIYGVHNVYKDTNMRGLPLSAEFTT
modifications: EGFR binding FN3 domain
B5: P54AR4-37v2: stabilized EGFR-binding FN3 domain, SEQ ID NO: 29 (protein)
chain: LPAPKNLVVSEVTEDSLRLSWTWPYADLDSFLIQYQESEKVGEAINLTVPGSERSYDLTGLKPGTEYTVSIYGVHNVYKDTNMRGLPLSAEFTT
modifications: EGFR binding FN3 domain
B6: ECB94: bispecific FN3: P54AR4-83v22-(AP)5-P114AR7P94-A3v22, SEQ ID NO: 61 (protein)
chain: MLPAPKNLVVSEVTEDSARLSWDDPWAFYESFLIQYQESEKVGEAIVLTVPGSERSYDLTGLKPGTEYTVSIYGVHNVYKDTNIRGLPLSAIFTTAPAPAPAPAPLPAPKNLVVSRVTEDSARLSWTAPDAAFDSFWIRYFEFLGSGEAIVLTVPGSERSYDLTGLKPGTEYVVNILGVKGGKISPPLSAIFTT
modifications: bispecific EGFR/cMet binding molecule
B7: ECB95: bispecific FN3: P54AR4-83v22-(AP)5-P114AR9P121-A6v2, SEQ ID NO: 62 (protein)
chain: MLPAPKNLVVSEVTEDSARLSWDDPWAFYESFLIQYQESEKVGEAIVLTVPGSERSYDLTGLKPGTEYTVSIYGVHNVYKDTNIRGLPLSAIFTTAPAPAPAPAPLPAPKNLVVSRVTEDSARLSWTAPDAAFDSFWIRYFEFVGSGEAIVLTVPGSERSYDLTGLKPGTEYVVNILGVKGGSISPPLSAIFTT
modifications: bispecific EGFR/cMet binding molecule
B8: ECB96: bispecific FN3: P54AR4-83v22-(AP)5-P114AR9P122-A7v2, SEQ ID NO: 63 (protein)
chain: MLPAPKNLVVSEVTEDSARLSWDDPWAFYESFLIQYQESEKVGEAIVLTVPGSERSYDLTGLKPGTEYTVSIYGVHNVYKDTNIRGLPLSAIFTTAPAPAPAPAPLPAPKNLVVSRVTEDSARLSWTAPDAAFDSFWIRYFEFVSKGDAIVLTVPGSERSYDLTGLKPGTEYVVNILGVKGGSISPPLSAIFTT
modifications: bispecific EGFR/cMet binding molecule
B9: ECB97: bispecific FN3: P54AR4-83v22-(AP)5-P114AR7P95-C5v2, SEQ ID NO: 64 (protein)
chain: MLPAPKNLVVSEVTEDSARLSWDDPWAFYESFLIQYQESEKVGEAIVLTVPGSERSYDLTGLKPGTEYTVSIYGVHNVYKDTNIRGLPLSAIFTTAPAPAPAPAPLPAPKNLVVSRVTEDSARLSWTAPDAAFDSFWIRYFEFLGSGEAIVLTVPGSERSYDLTGLKPGTEYVVNILSVKGGSISPPLSAIFTT
modifications: bispecific EGFR/cMet binding molecule
B10: P114AR7P92-G8: c-Met-binding FN3 domain, SEQ ID NO: 36 (protein)
chain: LPAPKNLVVSRVTEDSARLSWTAPDAAFDSFVIRYFEFLGSGEAIVLTVPGSERSYDLTGLKPGTEYVVQILGVKGGYISIPLSAIFTT
modifications: c-Met binding FN3 domain
B11: P114AR7P94-E5: c-Met-binding FN3 domain, SEQ ID NO: 42 (protein)
chain: LPAPKNLVVSRVTEDSARLSWTAPDAAFDSFWIRYFEFLGSGEAIVLTVPGSERSYDLTGLKPGTEYAVNIMGVKGGRVSVPLSAIFTT
modifications: c-Met binding FN3 domain
B12: P114AR5P74-A5: c-Met-binding FN3 domain, SEQ ID NO: 32 (protein)
chain: LPAPKNLVVSRVTEDSARLSWTAPDAAFDSFWIRYDEVVVGGEAIVLTVPGSERSYDLTGLKPGTEYYVNILGVKGGSISVPLSAIFTT
modifications: c-Met binding FN3 domain
B13: P114AR7P95-F10: c-Met-binding FN3 domain, SEQ ID NO: 47 (protein)
chain: LPAPKNLVVSRVTEDSARLSWTAPDAAFDSFWIRYFEFTTAGEAIVLTVPGSERSYDLTGLKPGTEYVVNIMGVKGGSISPPLSAIFTT
modifications: c-Met binding FN3 domain
B14: P114AR7P93-G8: c-Met-binding FN3 domain, SEQ ID NO: 39 (protein)
chain: LPAPKNLVVSRVTEDSARLSWTAPDAAFDSFWIRYFEFLGSGEAIVLTVPGSERSYDLTDLKPGTEYGVTINGVKGGRVSTPLSAIFTT
modifications: c-Met binding FN3 domain
B15: P114AR7P95-H8: c-Met-binding FN3 domain, SEQ ID NO: 49 (protein)
chain: LPAPKNLVVSRVTEDSARLSWTAPDAAFDSFWIRYFEFVSKGEAIVLTVPGSERSYDLTGLKPGTEYVVNIMGVKGGSISPPLSAIFTT
modifications: c-Met binding FN3 domain
B16: P114AR7P95-G7: c-Met-binding FN3 domain, SEQ ID NO: 48 (protein)
chain: LPAPKNLVVSRVTEDSARLSWTAPDAAFDSFWIRYFELLSTGEAIVLTVPGSERSYDLTGLKPGTEYVVNIMGVKGGSISPPLSAIFTT
modifications: c-Met binding FN3 domain
B17: P114AR7P92-F6: c-Met-binding FN3 domain, SEQ ID NO: 35 (protein)
chain: LPAPKNLVVSRVTEDSARLSWTAPDAAFDSFWIRYFEFLGSGEAIVLTVPGSERSYDLTGLKPGTEYVVNILGVKGGGLSVPLSAIFTT
modifications: c-Met binding FN3 domain
B18: P114AR7P93-H9: c-Met-binding FN3 domain, SEQ ID NO: 40 (protein)
chain: LPAPKNLVVSRVTEDSARLSWTAPDAAFDSFWIRYFEFLGSGEAIVLTVPGSERSYDLTGLKPGTEYVVQIIGVKGGHISLPLSAIFTT
modifications: c-Met binding FN3 domain
B19: P114AR7P94-A3: c-Met-binding FN3 domain, SEQ ID NO: 41 (protein)
chain: LPAPKNLVVSRVTEDSARLSWTAPDAAFDSFWIRYFEFLGSGEAIVLTVPGSERSYDLTGLKPGTEYVVNIMGVKGGKISPPLSAIFTT
modifications: c-Met binding FN3 domain
B20: P114AR7P95-D4: c-Met-binding FN3 domain, SEQ ID NO: 45 (protein)
chain: LPAPKNLVVSRVTEDSARLSWTAPDAAFDSFWIRYFEFLGSGEAIVLTVPGSERSYDLTGLKPGTEYVVQILGVKGGYISIPLSAIFTT
modifications: c-Met binding FN3 domain
B21: P114AR7P92-H5: c-Met-binding FN3 domain, SEQ ID NO: 37 (protein)
chain: LPAPKNLVVSRVTEDSARLSWTAPDAAFDSFWIRYLEFLLGGEAIVLTVPGSERSYDLTGLKPGTEYVVQIMGVKGGTVSPPLSAIFTT
modifications: c-Met binding FN3 domain

Key:
[1] = Differential scanning calorimetry in PBS (thermal stability); type: physicochemical; conditions: DSC in PBS
Source text: A subset of the EGFR binding FN3 domains was engineered to increase the conformational stability of each molecule. […] The new mutants, P54AR5-83v2, P54CR431-v2, and P54AR4-37v2 were expressed and purified as described above. Differential scanning calorimetry in PBS was used to assess the stability of each mutant in order to compare it to that of the corresponding parent molecule.
Thermal Stability of c-Met-binding FN3 Domains Differential Scanning Calorimetry in PBS was Used to Assess the Stability of Each FN3 Domain.

NCI-H292 cells = test: HGF-induced NCI-H292 cell proliferation; type: cell-based, human; conditions: read-out: H292-HGF Proliferation inhibition in HGF-induced H292 cells (IC50)
Source text: The proliferation assay was completed using different combinations EGFR and c-Met binding FN3 domains either as a mixture or linked in a bispecific format. […] This confirmed that the avidity effect observed at the level of the receptors (FIG. 4 and FIG. 5) translates into an improvement in inhibiting cell signaling (Table 12) and cell proliferation (Table 13).
Select bispecific EGFR/c-Met molecules were characterized for their affinity to both EGFR and c-Met, their ability to inhibit EGFR and c-Met autophosphorylation, and their effect on proliferation of HGF cells. Binding affinity of the bispecific EGFR/c-Met molecules to recombinant EGFR and/or c-Met extracellular domain was further evaluated by surface Plasmon resonance methods using a Proteon Instrument (BioRad) according to protocol described in Example 3.

Molecule | Thermal Stability (Tm, C.) [1] [C.] | also measured
B1 | – | Tm (° C.) [1]: 60.9 °C
B2 | – | Tm (° C.) [1]: 78.9 °C
B3 | – | Tm (° C.) [1]: 50.6 °C
B4 | – | Tm (° C.) [1]: 45.9 °C
B5 | – | Tm (° C.) [1]: 64.2 °C
B6 | – | IC50 (NCI-H292 cells): 29.6 nM
B7 | – | IC50 (NCI-H292 cells): 383 nM
B8 | – | IC50 (NCI-H292 cells): 9480 nM
B9 | – | IC50 (NCI-H292 cells): 31 nM
B10 | 90.9 | –
B11 | 80 | –
B12 | 74.1 | –
B13 | 85.2 | –
B14 | 76.8 | –
B15 | 83 | –
B16 | 87.2 | –
B17 | 76.8 | –
B18 | 88.2 | –
B19 | 86.2 | –
B20 | 85.3 | –
B21 | 87 | –
